Assays:
[1] = test system: GSK-3 beta; assay: In ovo tau phosphorylation assay: GSK-3 beta and Xaxin constructs co-expressed in Xenopus oocytes; format: cell-based; conditions: construct co-expressed with GSK-3 beta in Xenopus oocytes; tau microinjected; PHF-1 immunoblot
Method: Stage VI Xenopus oocytes were isolated by collagenase treatment (Smith et al., 1994, Meth. Cell Biol. 36:45-58) and were injected with mRNA prepared by in vitro transcription (mMessage Machine™; Ambion, Austin, Tex.). 10 nanoliters of mRNA (containing 1-2 nanograms per nanoliter) was injected for each construct (unless otherwise specified), and the injected oocytes were incubated for 16 hours at 18° C. To analyze the effects of Xaxin constructs on dorsal-ventral pattern formation, Xenopus embryos were injected with 10 nanoliters of mRNA (0.1-0.2 nanogram per nanoliter) into one dorsal or ventral cell of a 4 cell embryo and dorsal axes were assessed at the tadpole stage. For Xaxin co-immunoprecipitation, fertilized eggs were injected with 10 nanoliters of Xaxin tagged with Myc, with hemagglutinin, or with both Myc and hemagglutinin (1 nanogram per nanoliter) and harvested at the blastula stage (stage 8).
In ovo phosphorylation of tau by GSK-3 beta was performed by microinjection of tau protein into oocytes expressing GSK-3 beta and Xaxin constructs. After 90 minutes, oocytes were homogenized and tau phosphorylation was analyzed in western blots using phospho-specific antibodies as described (Hedgepeth et al., 1997, Develop. Biol. 185:82-91). In vitro assays for GSK-3 beta activity were performed as described (Klein et al., 1996, Proc. Natl. Acad. Sci. USA 93:8455-8459). Recombinant GID-2/his protein (described below) was purified by affinity chromatography and added to in vitro assays at selected concentrations.
In the experiments presented in this example, a tau phosphorylation assay (described in Hedgepeth et al., 1997, Develop. Biol. 185:82-91) was used to examine the activity of GSK-3 beta in Xenopus oocytes in the presence of full length axin and axin deletion mutants. […] Furthermore, GSK-3 beta-dependent tau phosphorylation occurs in oocytes at the same sites (tau serine residues 396 and 404) that are phosphorylated by GSK-3 beta in vitro and occurs with similarly rapid kinetics.
GSK-3 beta was expressed in oocytes together with Myc-tagged full length Xaxin or with the amino-terminal (amino acid residues 63-288), GID-1 (amino acid residues 277-545), or carboxyl-terminal (amino acid residues 429-713) fragments of Xaxin, as depicted in FIG. 1A. Purified tau protein was then microinjected into the oocytes, and phosphorylation of tau was measured by immunoblotting using antibody PHF-1 or with antibodies that detect all (i.e. phosphorylated and non-phosphorylated) forms of tau.
In order to identify the domain of axin necessary for GSK-3 beta binding, multiple Myc-tagged GID deletion constructs (shown diagrammatically in FIG. 3A) were individually expressed in Xenopus oocytes in which GSK-3 beta was also expressed. Tau protein was microinjected into the oocytes, and immunoblotting was performed using phosphorylation-state-specific tau antibodies. A parallel group of oocytes expressing GSK-3 beta and the Myc-tagged GID deletion constructs were lysed, and GID proteins were immunoprecipitated using a Myc-specific antibody. The presence or absence of GSK-3 beta in GID immunoprecipitates was detected using GSK-3 beta-specific antibodies. GID deletion constructs which included amino acid residues 380-404 of Xaxin (i.e. constructs GID-1, GID-2, GID-4, GID-5, and GID-6) bound GSK-3 beta and inhibited GSK-3 beta mediated tau phosphorylation, as indicated in FIG. 3A. […] However, changing leucine residue 392 in FIG. 3B to proline abolishes its activity.

[2] = test system: Xenopus embryos; assay: Dorsal axis duplication / dorsalization in Xenopus embryos after mRNA injection; format: in vivo; conditions: 4 cell embryo
[3] = test system: GSK-3 beta; assay: Yeast two hybrid assay, interaction with GSK-3 beta; format: binding; conditions: beta-galactosidase filter assay in S. cerevisiae
Text: (§1) FL Xaxin was cloned in frame with the GAL4 DNA binding domain (BD) in plasmid pAS2-1 (Clontech) to yield BD plasmid. Expression of BD plasmid yielded a Xaxin-GAL4 fusion protein. FL Xaxin, deltaDIX Xaxin, and a fragment (designated “AID”) encoding amino acid residues 489-777 of Xaxin were cloned in frame with the GAL4 transcriptional activation domain (AD) in the vector pACT2 to yield AD plasmids. Yeast were transformed with BD and AD plasmids using previously described protocols (Clontech, Palo Alto, Calif.). Transformed colonies were selected and assayed for beta-galactosidase activity in order to detect interacting proteins. In addition, three Xenopus axin partial length cDNAs (designated Y2H 2, Y2H 6, Y2H 7; all in plasmid pACT2) isolated from a previous yeast two hybrid screen (Hedgepeth et al., 1999, Mech. Develop. 80:147-151) were analyzed. Purification of GID
(§2) Using the yeast two hybrid assay, the ability of axin to bind with itself, with other members of the wnt pathway, or with the G(alpha)q subunit of heterotrimeric G-proteins, was investigated. […]
(§3) Saccharomyces cerevisiae cells were transformed with the bait vector and with one of the target vectors. Interaction was assessed using a filter assay to detect beta-galactosidase activity, as described (Fields et al., 1989, Nature 340:245-247; Harper et al., 1993, Cell 75:805-816). […]

[4] = test system: disheveled; assay: Yeast two hybrid assay, interaction with disheveled; format: binding; conditions: beta-galactosidase filter assay in S. cerevisiae
Text: as §1, §2, §3

[5] = biological target: T1, carboxyl-terminal fragment of Xenopus frizzled 7 (Xenopus laevis, UniProt Q9PUK8); assay: Yeast two hybrid assay, interaction with frizzled 7 fragment; format: binding; conditions: beta-galactosidase filter assay in S. cerevisiae
T1 sequence (Q9PUK8 525-549 limits assumed): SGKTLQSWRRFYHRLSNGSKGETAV
Text: as §1, §2, §3

B1: full length Xaxin: full length Xenopus axin, amino acid residues 1-842 (SEQ ID NO: 8) (protein, listed as Xenopus laevis)
chain: MSVKGKGFPLDLGGSFTEDAPRPPVPGEEGELITTDQRPFSHTYYSLKNDGIKNETSTATPRRPDLDLGYEPEGSASPTPPYLKWAESLHSLLDDQDGIHLFRTFLQQENCADLLDFWFACSGFRKLEPNDSKVEKRLKLAKAIYKKYVLDSNGIVSRQIKPATKSFIKDCVLRQQIDPAMFDQAQMEIQSMMEDNTYPVFLKSDIYLEYTTIGGESPKNYSDQSSGSGTGKGPSGYLPTLNEDEEWRCDQGGEHERERECIPSSLFSQKLALDSSSHCAGSNRRLSDGREFRPGTWREPVNPYYVNTGYAGAPVTSANDSEQQSMSSDADTMSLTDSSVDGIPPYRLRKHYRREMQESANANGRGPLPHIPRTYHMPKDIHVDPEKFAAELISRLEGVLRDREAEQKLEERLKRVRAEEEGDDGDVSSGPSVISHKLPSGPPMHHFNSRYSETGCVGMQIRDAHEENPESILDEHVQRVMKTPGCQSPGTGRHSPKSRSPDGHLSKTLPGSLGTMQTGHGKHSSKSTAKVDSGNLHHHKHVYHHVHHHGGVKPKEQIDGESTQRVQTNFPWNVESHNYATKSRNYAESMGMAPNPMDSLAYSGKVSMLSKRNAKKADLGKSESASHEMPVVPEDSERHQKILQWIMEGEKEIIRHKKSNHSSSSAKKQPPTELARPLSIERPGAVHPWVSAQLRNVVQPSHPFIQDPTMPPNPAPNPLTQLVSKPGARLEEEEKKAAKMPQKQRLKPQKKNVSAPSQPCDNIVVAYYFCGEPIPYRTMVKGRVVTLGQFKELLTKKGNYRYYFKKVSDEFDCGVVFEEVREDDMILPIYEEKIIGQVEKID
GSK-3 beta-mediated tau phosphorylation (GSK-3 beta activity) [1]: no discernible effect | effect on axial development ([2]; mRNA injected or expressed dorsally): caused ventralization | secondary / ectopic axis formation ([2]; mRNA injected or expressed ventrally, scored at tadpole stage): induced formation of ectopic cement glands | interaction with GSK-3 beta [3]: interacted strongly | interaction with disheveled [4]: did not interact | interaction with carboxyl-terminal fragment of Xenopus frizzled 7 [5]: did not interact

Source: US20010052137A1, “Axin domain-like polypeptide inhibitors of glycogen synthase kinase 3 beta activity and activators of wnt signaling” (Trustees of the University of Pennsylvania, priority 2000, published 2001)
